According to patent publication US20160010082A1 (University of California, published 2016):

Molecular target: T1, streptavidin-R-phycoerythrin (UniProt P22629 37-163, limits assumed)
T1 construct: Bought conjugate; also called SA-PE; fluorescently-conjugated streptavidin probe
Test: flow cytometry of E. coli displaying the construct, 100 nM SA-PE; 25 minutes of expression

T1 sequence (P22629 37-163 limits assumed): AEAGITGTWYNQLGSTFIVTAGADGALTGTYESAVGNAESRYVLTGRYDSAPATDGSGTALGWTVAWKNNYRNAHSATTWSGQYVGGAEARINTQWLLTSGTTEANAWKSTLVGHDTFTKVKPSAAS

Binder	Relative Display level (fold fluorescence above background)
CPX-L2-3 displaying SApep at the N-terminus (other) GQSGQAECHPQGPPCIEGRKGGQSGQSGDYNKNQYYGITAGPAYRINDWASIYGVVGVGYGKFQTTEYPTYKHDTSDYGFSYGAGLQFNPMENVALDFSYEQSRIRSVDVGTWIISVGYRFGTRGSQATSTVTGGYAQSDAQGQMNKMGGFNLKYRYEEDNSPLGVIGSFTYTEKSRTAS	29 fold above background
CPX-L2-7 displaying SApep at the N-terminus (other) GQSGQAECHPQGPPCIEGRKGGQSGQSGDYNKNQYYGITAGPAYRINDWASIYGVVGVGYGKFQTTEYPTYKHDTSDYGFSYGAGLQFNPMENVALDFSYEQSRIRSVDVGTWIVSVGYRFGTHNSQATSTVTGGYAQSDAQGQMNKMGGFNLKYRYEEDNSPLGVIGSFTYTEKSRTAS	26 fold above background
CPX-L2-4 displaying SApep at the N-terminus (other) GQSGQAECHPQGPPCIEGRKGGQSGQSGDYNKNQYYGITAGPAYRINDWASIYGVVGVGYGKFQTTEYPTYKHDTSDYGFSYGAGLQFNPMENVALDFSYEQSRIRSVDVGTWILSVGYRFGHRSHRATSTVTGGYAQSDAQGQMNKMGGFNLKYRYEEDNSPLGVIGSFTYTEKSRTAS	27 fold above background
CPX-L2-6 displaying SApep at the N-terminus (other) GQSGQAECHPQGPPCIEGRKGGQSGQSGDYNKNQYYGITAGPAYRINDWASIYGVVGVGYGKFQTTEYPTYKHDTSDYGFSYGAGLQFNPMENVALDFSYEQSRIRSVDVGTWIVAVGYRFGARGRHATSTVTGGYAQSDAQGQMNKMGGFNLKYRYEEDNSPLGVIGSFTYTEKSRTAS	24 fold above background
CPX-L2-8 displaying SApep at the N-terminus (other) GQSGQAECHPQGPPCIEGRKGGQSGQSGDYNKNQYYGITAGPAYRINDWASIYGVVGVGYGKFQTTEYPTYKHDTSDYGFSYGAGLQFNPMENVALDFSYEQSRIRSVDVGTWIVSVGYRFGPNKSRATSTVTGGYAQSDAQGQMNKMGGFNLKYRYEEDNSPLGVIGSFTYTEKSRTAS	17 fold above background
CPX-L2-2 displaying SApep at the N-terminus (other) GQSGQAECHPQGPPCIEGRKGGQSGQSGDYNKNQYYGITAGPAYRINDWASIYGVVGVGYGKFQTTEYPTYKHDTSDYGFSYGAGLQFNPMENVALDFSYEQSRIRSVDVGTWIFSVGYRFGRKNSHATSTVTGGYAQSDAQGQMNKMGGFNLKYRYEEDNSPLGVIGSFTYTEKSRTAS	19 fold above background
CPX-L2-9 displaying SApep at the N-terminus (other) GQSGQAECHPQGPPCIEGRKGGQSGQSGDYNKNQYYGITAGPAYRINDWASIYGVVGVGYGKFQTTEYPTYKHDTSDYGFSYGAGLQFNPMENVALDFSYEQSRIRSVDVGTWIISVGYRFGPHNSRATSTVTGGYAQSDAQGQMNKMGGFNLKYRYEEDNSPLGVIGSFTYTEKSRTAS	23 fold above background
CPX-L2-5 displaying SApep at the N-terminus (other) GQSGQAECHPQGPPCIEGRKGGQSGQSGDYNKNQYYGITAGPAYRINDWASIYGVVGVGYGKFQTTEYPTYKHDTSDYGFSYGAGLQFNPMENVALDFSYEQSRIRSVDVGTWIISVGYRFGDRKRRATSTVTGGYAQSDAQGQMNKMGGFNLKYRYEEDNSPLGVIGSFTYTEKSRTAS	28 fold above background
CPX with the streptavidin binding peptide fused to the N-terminus (pB33CPX-SApep) (other, also called parent CPX scaffold) GQSGQAECHPQGPPCIEGRKGGQSGQSGDYNKNQYYGITAGPAYRINDWASIYGVVGVGYGKFQTTEYPTYKHDTSDYGFSYGAGLQFNPMENVALDFSYEQSRIRSVDVGTWIAGVGYRFGGSGATSTVTGGYAQSDAQGQMNKMGGFNLKYRYEEDNSPLGVIGSFTYTEKSRTAS	1.5 fold above background
CPX-L2-10 displaying SApep at the N-terminus (other) GQSGQAECHPQGPPCIEGRKGGQSGQSGDYNKNQYYGITAGPAYRINDWASIYGVVGVGYGKFQTTEYPTYKHDTSDYGFSYGAGLQFNPMENVALDFSYEQSRIRSVDVGTWIISVGYRFHRGYHAQRATSTVTGGYAQSDAQGQMNKMGGFNLKYRYEEDNSPLGVIGSFTYTEKSRTAS	33 fold above background

Molecular target: T1, streptavidin-R-phycoerythrin
Test: flow cytometry of E. coli displaying the construct, 100 nM SA-PE; 50 minutes of expression

Binder	Relative Display level (fold fluorescence above background)
CPX-6X-4 displaying SApep at the N-terminus (other) GQSGQAECHPQGPPCIEGRKGGQSGQSGDYNKNQYYGITAGPAYRINDWASIYGVVGVGYGKFQTTEYPTYKHDTSDYGFSYGAGLQFNPMENVALDFSYEQSRIRSVDVGTWIASVGYRFGSKQSKATSTVTGGYAQSDAQGQMNKMGGFNLKYRYEEDNSPLGVIGSFTYTEKSRTAS	38 fold above background
CPX-6X-2 displaying SApep at the N-terminus (other) GQSGQAECHPQGPPCIEGRKGGQSGQSGDYNKNQYYGITAGPAYRINDWASIYGVVGVGYGKFQTTEYPTYKHDTSDYGFSYGAGLQFNPMENVALDFSYEQSRIRSVDVGTWIAGVGYRFGRRHYKATSTVTGGYAQSDAQGQMNKMGGFNLKYRYEEDNSPLGVIGSFTYTEKSRTAS	28 fold above background
CPX-6X-1 displaying SApep at the N-terminus (other) GQSGQAECHPQGPPCIEGRKGGQSGQSGDYNKNQYYGITAGPAYRINDWASIYGVVGVGYGKFQTTEYPTYKHDTSDYGFSYGAGLQFNPMENVALDFSYEQSRIRSVDVGTWIAGVGYRFGTKRYHATSTVTGGYAQSDAQGQMNKMGGFNLKYRYEEDNSPLGVIGSFTYTEKSRTAS	35 fold above background
CPX-6X-3 displaying SApep at the N-terminus (other) GQSGQAECHPQGPPCIEGRKGGQSGQSGDYNKNQYYGITAGPAYRINDWASIYGVVGVGYGKFQTTEYPTYKHDTSDYGFSYGAGLQFNPMENVALDFSYEQSRIRSVDVGTWIAGVGYRFGNRRHRATSTVTGGYAQSDAQGQMNKMGGFNLKYRYEEDNSPLGVIGSFTYTEKSRTAS	24 fold above background
CPX-4X-1 displaying SApep at the N-terminus (other) GQSGQAECHPQGPPCIEGRKGGQSGQSGDYNKNQYYGITAGPAYRINDWASIYGVVGVGYGKFQTTEYPTYKHDTSDYGFSYGAGLQFNPMENVALDFSYEQSRIRSVDVGTWIAGVGYRFGSKRATSTVTGGYAQSDAQGQMNKMGGFNLKYRYEEDNSPLGVIGSFTYTEKSRTAS	18 fold above background
CPX-4X-2 displaying SApep at the N-terminus (other) GQSGQAECHPQGPPCIEGRKGGQSGQSGDYNKNQYYGITAGPAYRINDWASIYGVVGVGYGKFQTTEYPTYKHDTSDYGFSYGAGLQFNPMENVALDFSYEQSRIRSVDVGTWIAGVGYRFGRQKATSTVTGGYAQSDAQGQMNKMGGFNLKYRYEEDNSPLGVIGSFTYTEKSRTAS	14 fold above background
CPX-4X-4 displaying SApep at the N-terminus (other) GQSGQAECHPQGPPCIEGRKGGQSGQSGDYNKNQYYGITAGPAYRINDWASIYGVVGVGYGKFQTTEYPTYKHDTSDYGFSYGAGLQFNPMENVALDFSYEQSRIRSVDVGTWIVGVGYRFPRKSATSTVTGGYAQSDAQGQMNKMGGFNLKYRYEEDNSPLGVIGSFTYTEKSRTAS	22 fold above background
CPX with the streptavidin binding peptide fused to the N-terminus (pB33CPX-SApep) (other, also called parent CPX scaffold) GQSGQAECHPQGPPCIEGRKGGQSGQSGDYNKNQYYGITAGPAYRINDWASIYGVVGVGYGKFQTTEYPTYKHDTSDYGFSYGAGLQFNPMENVALDFSYEQSRIRSVDVGTWIAGVGYRFGGSGATSTVTGGYAQSDAQGQMNKMGGFNLKYRYEEDNSPLGVIGSFTYTEKSRTAS	2.3 fold above background
CPX-4X-3 displaying SApep at the N-terminus (other) GQSGQAECHPQGPPCIEGRKGGQSGQSGDYNKNQYYGITAGPAYRINDWASIYGVVGVGYGKFQTTEYPTYKHDTSDYGFSYGAGLQFNPMENVALDFSYEQSRIRSVDVGTWIAGVGYRFSWPNATSTVTGGYAQSDAQGQMNKMGGFNLKYRYEEDNSPLGVIGSFTYTEKSRTAS	15 fold above background
CPX-5X-1 displaying SApep at the N-terminus (other) GQSGQAECHPQGPPCIEGRKGGQSGQSGDYNKNQYYGITAGPAYRINDWASIYGVVGVGYGKFQTTEYPTYKHDTSDYGFSYGAGLQFNPMENVALDFSYEQSRIRSVDVGTWIAGVGYRFGRTRKATSTVTGGYAQSDAQGQMNKMGGFNLKYRYEEDNSPLGVIGSFTYTEKSRTAS	24 fold above background
CPX-5X-4 displaying SApep at the N-terminus (other) GQSGQAECHPQGPPCIEGRKGGQSGQSGDYNKNQYYGITAGPAYRINDWASIYGVVGVGYGKFQTTEYPTYKHDTSDYGFSYGAGLQFNPMENVALDFSYEQSRIRSVDVGTWIASVGYRFGSQSKATSTVTGGYAQSDAQGQMNKMGGFNLKYRYEEDNSPLGVIGSFTYTEKSRTAS	36 fold above background
CPX-5X-2 displaying SApep at the N-terminus (other) GQSGQAECHPQGPPCIEGRKGGQSGQSGDYNKNQYYGITAGPAYRINDWASIYGVVGVGYGKFQTTEYPTYKHDTSDYGFSYGAGLQFNPMENVALDFSYEQSRIRSVDVGTWIAGVGYRFGRKRNATSTVTGGYAQSDAQGQMNKMGGFNLKYRYEEDNSPLGVIGSFTYTEKSRTAS	22 fold above background
CPX-5X-3 displaying SApep at the N-terminus (other) GQSGQAECHPQGPPCIEGRKGGQSGQSGDYNKNQYYGITAGPAYRINDWASIYGVVGVGYGKFQTTEYPTYKHDTSDYGFSYGAGLQFNPMENVALDFSYEQSRIRSVDVGTWIVGVGYRFGATRRATSTVTGGYAQSDAQGQMNKMGGFNLKYRYEEDNSPLGVIGSFTYTEKSRTAS	32 fold above background
CPX-3X-3 displaying SApep at the N-terminus (other) GQSGQAECHPQGPPCIEGRKGGQSGQSGDYNKNQYYGITAGPAYRINDWASIYGVVGVGYGKFQTTEYPTYKHDTSDYGFSYGAGLQFNPMENVALDFSYEQSRIRSVDVGTWIAGVGYRFGTKATSTVTGGYAQSDAQGQMNKMGGFNLKYRYEEDNSPLGVIGSFTYTEKSRTAS	7.1 fold above background
CPX-3X-4 displaying SApep at the N-terminus (other) GQSGQAECHPQGPPCIEGRKGGQSGQSGDYNKNQYYGITAGPAYRINDWASIYGVVGVGYGKFQTTEYPTYKHDTSDYGFSYGAGLQFNPMENVALDFSYEQSRIRSVDVGTWIAGVGYRFGKKATSTVTGGYAQSDAQGQMNKMGGFNLKYRYEEDNSPLGVIGSFTYTEKSRTAS	10 fold above background
